Measurements: US20090155853A1

Target: human coxsackie virus B adenovirus receptor (CAR) expressed on CHO cells (CHO-hCAR) (human) (UniProt P78310)
Experiment: cell-based or functional assay

Sequence of UniProt P78310 (P78310 20-365): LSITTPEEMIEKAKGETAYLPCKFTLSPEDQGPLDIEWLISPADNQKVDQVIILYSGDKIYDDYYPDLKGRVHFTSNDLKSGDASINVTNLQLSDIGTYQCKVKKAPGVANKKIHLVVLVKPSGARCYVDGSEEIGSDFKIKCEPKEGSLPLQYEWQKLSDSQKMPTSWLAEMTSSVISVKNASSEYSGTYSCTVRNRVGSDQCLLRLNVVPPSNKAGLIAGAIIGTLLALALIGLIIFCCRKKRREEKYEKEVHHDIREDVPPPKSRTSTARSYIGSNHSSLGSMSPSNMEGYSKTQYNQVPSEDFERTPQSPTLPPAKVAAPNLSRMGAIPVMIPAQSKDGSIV

HMG-PB/Fiber complex (HMG-PB plus Fiber protein) (from UniProt P12538 1-571; P11818 1-581)
luciferase reporter plasmid delivery (luciferase gene expression) in CHO-hCAR against parental CHO cells: 6 times
